Reference: patent US20220025023A1 (AC IMMUNE, published 2022)
Blank lines part the entries; values can stand above or below the binder they belong to. Where no end group is shown, it is not given here.

Legend:
[1] = molecular target: T1, TDP-210 peptide (human); assay: indirect ELISA, 8-mer peptide library
T1 construct: 8-mer of human TDP-43; same ELISA method as for the biotinylated 15-mers
T1 peptide: FFSQYGDV
Procedure: (§1) Serum-free supernatants were harvested from stable hybridomas. The supernatants containing antibodies of interest were then screened by an indirect ELISA assay to determine epitopes. Epitopes were mapped using a library of TDP-43 15-mer peptides. Briefly, 96-well streptavidin-coated 96-well ELISA plates were incubated with 5 μg/mL of biotinylated 15-mer peptides spanning the amino acids (aa) 199-285 of human TDP-43 with 9 aa offset and 6 aa overlap. Plates were washed thoroughly with 0.05% Tween-20/PBS and then blocked with 1% bovine serum albumin (BSA) in 0.05% Tween-20/PBS for 1 hour at 37° C. The antibody contained in the hybridoma supernatant was then added at the indicated dilutions, and incubated for 2 hours at 37° C. after which the plates were washed as described previously. An AP-conjugated anti-mouse IgG secondary antibody (Jackson ImmunoResearch Laboratories, United Kingdom) was added at 1/1000 dilution in 0.05% Tween-20/PBS for 1 hour at 37° C. After the final wash, plates were incubated with pNPP (Sigma-Aldrich, Switzerland) an AP substrate solution, and read at 405 nm using an ELISA plate reader (Tecan).
(§2) Furthermore, antibodies were tested using an indirect ELISA on a peptide library of 8-mer peptides with 7 aa overlap covering the sequence of human TDP-43 from aa 210 to aa 231, using the same ELISA method as describe previously in this section.

[2] = molecular target: T2, TDP-211 peptide (human); assay: indirect ELISA, 8-mer peptide library
T2 construct: 8-mer of human TDP-43; same ELISA method as for the biotinylated 15-mers
T2 peptide: FSQYGDVM
Procedure: as §1, §2

[3] = molecular target: T3, TDP-212 peptide (human); assay: indirect ELISA, 8-mer peptide library
T3 construct: 8-mer of human TDP-43; same ELISA method as for the biotinylated 15-mers
T3 peptide: SQYGDVMD
Procedure: as §1, §2

[4] = molecular target: T4, TDP-213 peptide (human); assay: indirect ELISA, 8-mer peptide library
T4 construct: 8-mer of human TDP-43; same ELISA method as for the biotinylated 15-mers
T4 peptide: QYGDVMDV
Procedure: as §1, §2

[5] = molecular target: T5, TDP-214 peptide (human); assay: indirect ELISA, 8-mer peptide library
T5 construct: 8-mer of human TDP-43; same ELISA method as for the biotinylated 15-mers
T5 peptide: YGDVMDVF
Procedure: as §1, §2

[6] = molecular target: T6, TDP-217 peptide (human); assay: indirect ELISA, 8-mer peptide library
T6 construct: 8-mer of human TDP-43; same ELISA method as for the biotinylated 15-mers
T6 peptide: VMDVFIPK
Procedure: as §1, §2

[7] = molecular target: T7, TDP-218 peptide (human); assay: indirect ELISA, 8-mer peptide library
T7 construct: 8-mer of human TDP-43; same ELISA method as for the biotinylated 15-mers
T7 peptide: MDVFIPKP
Procedure: as §1, §2

[8] = molecular target: T8, TDP-219 peptide (human); assay: indirect ELISA, 8-mer peptide library
T8 construct: 8-mer of human TDP-43; same ELISA method as for the biotinylated 15-mers
T8 peptide: DVFIPKPF
Procedure: as §1, §2

[9] = molecular target: T9, TDP-220 peptide (human); assay: indirect ELISA, 8-mer peptide library
T9 construct: 8-mer of human TDP-43; same ELISA method as for the biotinylated 15-mers
T9 peptide: VFIPKPFR
Procedure: as §1, §2

[10] = molecular target: T10, TDP-221 peptide (human); assay: indirect ELISA, 8-mer peptide library
T10 construct: 8-mer of human TDP-43; same ELISA method as for the biotinylated 15-mers
T10 peptide: FIPKPFRA
Procedure: as §1, §2

[11] = molecular target: T11, TDP-222 peptide (human); assay: indirect ELISA, 8-mer peptide library
T11 construct: 8-mer of human TDP-43; same ELISA method as for the biotinylated 15-mers
T11 peptide: IPKPFRAF
Procedure: as §1, §2

[12] = molecular target: T12, TDP-223 peptide (human); assay: indirect ELISA, 8-mer peptide library
T12 construct: 8-mer of human TDP-43; same ELISA method as for the biotinylated 15-mers
T12 peptide: PKPFRAFA
Procedure: as §1, §2

[13] = molecular target: T13, TDP-224 peptide (human); assay: indirect ELISA, 8-mer peptide library
T13 construct: 8-mer of human TDP-43; same ELISA method as for the biotinylated 15-mers
T13 peptide: KPFRAFAF
Procedure: as §1, §2

[14] = molecular target: T14, TDP-215 peptide (human); assay: indirect ELISA, 8-mer peptide library, OD 405 nm
T14 construct: same ELISA method as for the biotinylated 15-mers
T14 peptide: GDVMDVFI
Procedure: as §1, §2

[15] = molecular target: T15, TDP-3 peptide (human); assay: Luminex bead assay, serial dilution of the antibody, MFI
T15 construct: Irrelevant control peptide; conjugated to Luminex beads in the assay; also called TDP-43 aa 310-370; irrelevant target
T15 peptide: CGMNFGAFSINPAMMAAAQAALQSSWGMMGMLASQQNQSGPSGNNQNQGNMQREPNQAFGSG

[16] = molecular target: T16, TDP-1 peptide (human); assay: Luminex bead assay, antibody serial dilution, TDP-1 peptide beads
T16 construct: Immunogen peptide; conjugated to Luminex beads in the assay; also called TDP-43 aa 212-272
T16 peptide: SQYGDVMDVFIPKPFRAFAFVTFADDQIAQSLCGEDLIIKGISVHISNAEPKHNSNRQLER

[17] = molecular target: T17, BSA (bovine, UniProt P02769); assay: indirect ELISA, control coat in the 15-mer series, hybridoma supernatant
T17 construct: not specified; also called bovine serum albumin

[18] = molecular target: T18, TP-24 peptide (human, also: biotinylated, site not given here); assay: indirect ELISA, biotinylated 15-mer peptide on streptavidin plate, hybridoma supernatant
T18 construct: 15-mer of human TDP-43 from the library spanning aa 199-285; captured on streptavidin plates
T18 peptide: REFFSQYGDVMDVFI
Procedure: as §1

[19] = molecular target: T19, TP-25 peptide (human, also: biotinylated, site not given here); assay: as above
T19 construct: 15-mer of human TDP-43 from the library spanning aa 199-285; captured on streptavidin plates
T19 peptide: VMDVFIPKPFRAFAF
Procedure: as §1

[20] = molecular target: T20, TP-26 (also: biotinylated, site not given here); assay: indirect ELISA, biotinylated 15-mer on streptavidin plate, hybridoma supernatant
T20 construct: also called TP-26 peptide
T20 peptide: FRAFAFVTFADDQIA
Procedure: as §1

[21] = molecular target: T21, TP-27 (also: biotinylated, site not given here); assay: as above
T21 construct: also called TP-27 peptide
T21 peptide: ADDQIAQSLCGEDLI
Procedure: as §1

[22] = molecular target: T22, TP-28 (also: biotinylated, site not given here); assay: as above
T22 construct: also called TP-28 peptide
T22 peptide: CGEDLIIKGISVHIS
Procedure: as §1

[23] = molecular target: T23, TP-29 (also: biotinylated, site not given here); assay: as above
T23 construct: also called TP-29 peptide
T23 peptide: ISVHISNAEPKHNSN
Procedure: as §1

[24] = molecular target: T24, TP-30 (also: biotinylated, site not given here); assay: as above
T24 construct: also called TP-30 peptide
T24 peptide: PKHNSNRQLERSGRF
Procedure: as §1

[25] = molecular target: T25, TP-31 (also: biotinylated, site not given here); assay: as above
T25 construct: also called TP-31 peptide
T25 peptide: ERSGRFGGNPGGFGN
Procedure: as §1

T17 sequence (P02769 25-607 limits assumed): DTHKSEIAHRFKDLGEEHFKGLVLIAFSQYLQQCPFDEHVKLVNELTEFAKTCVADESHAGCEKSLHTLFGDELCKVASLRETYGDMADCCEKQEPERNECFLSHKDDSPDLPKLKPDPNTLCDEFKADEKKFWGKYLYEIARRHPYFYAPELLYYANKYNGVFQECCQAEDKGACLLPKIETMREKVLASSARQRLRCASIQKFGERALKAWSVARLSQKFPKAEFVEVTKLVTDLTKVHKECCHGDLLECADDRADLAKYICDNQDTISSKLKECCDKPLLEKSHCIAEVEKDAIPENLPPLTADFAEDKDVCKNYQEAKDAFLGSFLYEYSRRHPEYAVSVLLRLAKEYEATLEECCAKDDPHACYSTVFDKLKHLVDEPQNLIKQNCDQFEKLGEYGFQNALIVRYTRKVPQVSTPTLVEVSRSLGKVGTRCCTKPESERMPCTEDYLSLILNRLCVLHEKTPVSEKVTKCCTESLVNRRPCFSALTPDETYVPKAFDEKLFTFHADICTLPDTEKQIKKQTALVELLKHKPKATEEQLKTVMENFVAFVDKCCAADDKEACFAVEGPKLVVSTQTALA

- binding result [1]: no binding
- binding result [2]: no binding
- binding result [3]: no binding
- binding result [4]: no binding
- binding result [5]: no binding
- binding result [6]: no binding
- binding result [7]: no binding
- binding result [8]: no binding
- binding result [9]: no binding
- binding result [10]: no binding
- binding result [11]: no binding
- binding result [12]: no binding
- binding result [13]: no binding
- binding result [14]: binds
- binding result [15]: no binding (tested: about 20000 pM)
- EC50 [16]: < 0.01 nM
- binding result [17]: no binding
- OD [18]: 2.5 O.D. (405 nm)
- OD [19]: 1 O.D. (405 nm)
- binding result [20]: no binding
- binding result [21]: no binding
- binding result [22]: no binding
- binding result [23]: no binding
- binding result [24]: no binding
- binding result [25]: no binding
B1: ACI-7062-401A2-Ab2 (antibody, IgG1, V domains shown)
VH: DVQLVESGGGLVQPGGSRRLSCAASGFTFSRFGMHWVRQAPEKGLEWVAYIRSGSDIIYYADSVKGRFTISRDNPENTLFLQMTSLRSEDTAMYYCARSGTTVPFDYWGQGTSLTVSS
VL: DIVMTQSPSSLAMSVGQKVTMSCKSSQSLLNSGDQKNYLAWYQQKPGQSPELLLYFASTRASGVPDRFIGSGSGTDFSLTISSVQAEDLADYFCQQHYSIPLTFGAGTKLELKR
notes: also called 401A2C6; clone 2

- binding result [15]: no binding (tested: about 20000 pM)
- EC50 [16]: < 0.01 nM
- binding result [17]: no binding
- OD [18]: 4 O.D. (405 nm)
- OD [19]: 0.9 O.D. (405 nm)
- binding result [20]: no binding
- binding result [21]: no binding
- binding result [23]: no binding
- binding result [24]: no binding
- binding result [25]: no binding
B2: ACI-7062-404D6-Ab2 (antibody, IgG3, V domains shown)
VH: QVTLKESGPGILQPSQTLSLTCSFSGFSLSTYGIGVGWIRQPSGKGLEWLAHIWWNDYKYYNTALKSRLTISKDTSNNRVFLKIASVDTADTATYYCARVYGNLYYFDYWGQGTTLTVSS
VL: DVLMTQTPLSLPVSLGDQASISCRSSQSIVHGSGNTYLEWYLQKPGQSPKLLIYKVSNRFSGVPDRFSGSGSGTDFTLRISRVEAEDLGVYYCFQGSHVPTFGAGTKLELKR
notes: also called 404D6E11; clone 4
